This data set concerns the molecule itself. The experiment in a line: SEC; Hsp90 dimerization assay: dilution series on Superdex 200 increase 10/300 GL (Shimadzu HPLC), fluorescence detection, 25 °C, 40 mM Hepes pH 7.5, 150 mM KCl, 5 mM MgCl2, 2 mM DTT; human Hsp90β 2 nM to 4 µM, yeast Hsp90 16 nM to 2 µM; KD = KD(app) divided by the dilution factor (about 4); dimer to monomers. For orientation: Size exclusion chromatography separates by hydrodynamic size, large species first.

B1: human Hsp90β K607A (natural protein)
chain: not shown
notes: Hsp90β, human; pET28 vector, site-directed mutagenesis; source: E. coli BL21 (DE3) cod+, purified (HisTrap, Resource Q, Superdex 200)
Take B1: the binding result is listed as “binds”.

B2: human Hsp90β K607E (natural protein)
chain: not shown
notes: as for B1
Turning to B2, the binding result is listed as “binds”.

B3: human Hsp90β K607R (natural protein)
chain: not shown
notes: as for B1
For B3, the binding result was “binds”.

B4: human Hsp90β K607I (natural protein)
chain: not shown
notes: as for B1
Consider B4, for which the binding result was “binds”.

For the origin of these results see publication PMC7057950 (Nature Communications, 2020).
